Reference: the supplement of paper PMC12764529
± gives the half width of the 95% confidence interval.

What was measured:
[1] = folding stability dG unfold from trypsin proteolysis; higher = more stable
How it was run: (§1)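 Mini-proteins designed to be under 80 residues and free of cysteine were carried in a PA-tagged cDNA display construct and digested with trypsin and with chymotrypsin. Each protease was applied at 11 threefold-diluted concentrations, alongside a no-protease condition, before sequencing. K50 came from Bayesian fitting of the sequencing counts, and unfolding free energy was obtained by comparing it with a sequence-predicted unfolded-state K50 and a shared folded-state K50, for each protease separately or for both together. Designs were retained only if their AlphaFold2 dimer inter-PAE exceeded 15.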

[2] = folding stability dG unfold from chymotrypsin proteolysis; higher = more stable
How it was run: as §1

[3] = folding stability dG unfold (combined trypsin and chymotrypsin); higher = more stable
How it was run: as §1

Sequence: AAPEGAVVTFDDKEITVAPDETLYLVNGKLYTKSEIPAVLKQLSPETEYTELTVAGDTGEVETETKHIYRPS [r1_304_JUSTAS]
- folding stability dG unfold [1]: 0.867 ± 0.097 kcal/mol
- folding stability dG unfold [2]: 1.51 ± 0.12 kcal/mol
- folding stability dG unfold [3]: 1.25 ± 0.14 kcal/mol

Sequence: ADFRVTEESPEGVVTQTTTVALPDGTSRTLTYSYSKDASLTSVTVSYTPDSVTTTTTPVTPVPPGSPELAGS [r1_53_JUSTAS]
- folding stability dG unfold [1]: -0.411 ± 0.17 kcal/mol
- folding stability dG unfold [2]: 0.24 ± 0.19 kcal/mol
- folding stability dG unfold [3]: 0.0981 ± 0.13 kcal/mol

Sequence: ARELPVEEIREAVREFLRKHGFRVVSEEVVELPDGSVLVFVEAEPEDKSTRYRLVITRPVDGSVRLVIEPVS [r1_460_TrMRF]
- folding stability dG unfold [1]: 2.66 ± 0.044 kcal/mol
- folding stability dG unfold [2]: 3.588 ± 0.011 kcal/mol
- folding stability dG unfold [3]: 3.283 ± 0.028 kcal/mol

Sequence: AVTVTVEPVGDALVVTVDLPRADGSPVRVVALFDPDGTVARVLVARSDPGPPRFVEVPAAPASDPVLLAAGS [r1_301_TrMRF]
- folding stability dG unfold [1]: 0.23 ± 0.2 kcal/mol
- folding stability dG unfold [2]: 1.38 ± 0.14 kcal/mol
- folding stability dG unfold [3]: 0.993 ± 0.13 kcal/mol

Sequence: DDWVTLPVEIWIPVRNPDGKPLTPEQVKETANSIRNELARNHGIDVEVDVKVEPVGPNGYYRINATVTIRPS [r1_231_TrROS]
- folding stability dG unfold [1]: 2.23 ± 0.1 kcal/mol
- folding stability dG unfold [2]: 2.98 ± 0.055 kcal/mol
- folding stability dG unfold [3]: 2.72 ± 0.14 kcal/mol

Sequence: DIDIETHPNGTILIKVPRNLLDEIKDILKENGYNVKITGIDPDWGYIRFPLKPVPPPPPKPSPEDAEEQGDS [r1_78_TrROS]
- folding stability dG unfold [1]: 1.76 ± 0.082 kcal/mol
- folding stability dG unfold [2]: 2.14 ± 0.041 kcal/mol
- folding stability dG unfold [3]: 1.89 ± 0.14 kcal/mol

Sequence: DMEPEPFTIELPNVKIEVQVYRTPNKLSVNAPIEFPNGKNLTISFKYEPTPDGIKLEISIMIPKKAIEKLLS [r1_153_TrROS]
- folding stability dG unfold [1]: 2.33 ± 0.097 kcal/mol
- folding stability dG unfold [2]: 3.44 ± 0.1 kcal/mol
- folding stability dG unfold [3]: 3.1 ± 0.3 kcal/mol

Sequence: DRIEIDVEMYDGYFYKIEIRWPGNGEPRELMFPGSLSEAKDFAEDLIQEQHPGAPVDEIDVEPVPMPPGDFS [r1_80_TrROS]
- folding stability dG unfold [1]: 0.683 ± 0.2 kcal/mol
- folding stability dG unfold [2]: 2.01 ± 0.05 kcal/mol
- folding stability dG unfold [3]: 1.69 ± 0.19 kcal/mol

Sequence: DYKIKIPVARFPDGYWYIRAEIEDPDGETHEYEYPIPMPPGDTFDIDLPEDEPYKIKKIWIYHNGKPQPITS [r1_70_TrROS]
- folding stability dG unfold [1]: 0.922 ± 0.11 kcal/mol
- folding stability dG unfold [2]: 1.36 ± 0.15 kcal/mol
- folding stability dG unfold [3]: 1.16 ± 0.16 kcal/mol

Sequence: EEIIEKLKEEGYEIVSVSIKEVNGKKKIFIAVRRKDKPEYLLVEIDLENKEVKIKKVKKFPKGESIEDILSS [r1_383_TrROS_Hall]
- folding stability dG unfold [1]: 2.95 ± 0.2 kcal/mol
- folding stability dG unfold [2]: 3.98 ± 0.23 kcal/mol
- folding stability dG unfold [3]: 3.56 ± 0.27 kcal/mol

Sequence: EKALEAARELARKLAEELGVEVEVRVKKVSVLNENGELIAEVEVEITVRPLPPPVVEEEEVEEEEVEFEEES [r1_318_TrROS_Hall]
- folding stability dG unfold [1]: 1.82 ± 0.1 kcal/mol
- folding stability dG unfold [2]: 2.18 ± 0.17 kcal/mol
- folding stability dG unfold [3]: 1.99 ± 0.23 kcal/mol

Sequence: FEELRNLPGLSLTPLAEEGEVRVYRLSLPPSVLAARGLPGVTVTVTVFPDGSYTVLPDDVPALEAAGLVVES [r1_256_JUSTAS]
- folding stability dG unfold [1]: 1.05 ± 0.02 kcal/mol
- folding stability dG unfold [2]: 2.43 ± 0.037 kcal/mol
- folding stability dG unfold [3]: 2.03 ± 0.045 kcal/mol

Sequence: FRFTIPLPDGKKIIIDYRPMPDGNYMFDVKLQLPNGKERTIPIMVPREEFPGMPMEEMAETMVKEALKKLKS [r1_92_TrROS]
- folding stability dG unfold [1]: 2.63 ± 0.15 kcal/mol
- folding stability dG unfold [2]: 3.4 ± 0.13 kcal/mol
- folding stability dG unfold [3]: 3.3 ± 0.26 kcal/mol

Sequence: FTMDEMKELADNIADNLAKEDGYKIKSVNIDATIPIPVYMKVRPDPNGEPRWEMHWMPIKVKINVEIKPPNS [r1_91_TrROS]
- folding stability dG unfold [1]: 2.02 ± 0.18 kcal/mol
- folding stability dG unfold [2]: 2.55 ± 0.09 kcal/mol
- folding stability dG unfold [3]: 2.55 ± 0.36 kcal/mol

Sequence: GEERTFSLWVKTKSPQEARQLQEKIKDILRGPGYEVKIDDVEVSPNGWMKVNITMRPGMPQDRLRDALRKIS [r1_485_TrROS]
- folding stability dG unfold [1]: 3.93 ± 0.082 kcal/mol
- folding stability dG unfold [2]: 5.24 ± 0.06 kcal/mol
- folding stability dG unfold [3]: 4.99 ± 0.07 kcal/mol

Sequence: GMMPEVKEYEVVVEVSLSDPSFASMTPEELAERAVAEVAAKPDFDPVEVEILSVKELPDGTYVVKVRITVRS [r1_484_JUSTAS]
- folding stability dG unfold [1]: 4.48 ± 0.2 kcal/mol
- folding stability dG unfold [2]: 3.15 ± 0.12 kcal/mol
- folding stability dG unfold [3]: 3.91 ± 0.14 kcal/mol

Sequence: GPSPVSVSTSTSTSLSTVGNTPVLVTTTTTTTTTLSPDPTDPSVTTTTTTTTTTTTVYDPANGKPLSTTTSS [r1_406_JUSTAS]
- folding stability dG unfold [1]: 1.83 ± 0.079 kcal/mol
- folding stability dG unfold [2]: 1.86 ± 0.059 kcal/mol
- folding stability dG unfold [3]: 1.83 ± 0.14 kcal/mol
